Measured values reported in patent US20230293638A1 (Eli Lilly, published 2023).
Positions count from the first letter of the chain named. Numbered stars: 1 amine (or outer) side, 2 acyl side, 3 side chain; on linkers, the order of the positions; unused ones are H or OH. Square brackets hold non-standard residues; d marks the D form. Side chains are listed from the residue outwards. Ends that are not written are not given here. * marks the point of attachment. C20 diacid = O=C(O)CCCCCCCCCCCCCCCCCCC(=O)*; C18 diacid = O=C(O)CCCCCCCCCCCCCCCCC(=O)*; γGlu = O=C(O)[C@H](CCC(=O)[*:2])N[*:1]; αMeP = C[C@@]1(C(=O)O)CCCN1; AEEA = NCCOCCOCC(=O)O; Aib = CC(C)(N)C(=O)O

B1: Peptide 197 (peptide)
peptide: Y[αMeP]EGTFTSDYSILLDEK([AEEA-AEEA-γGlu-C18 diacid])AQQAFIEYLIEGGPSSG-NH2
modifications: N-terminus assumed
SMILES: CC[C@H](C)[C@H](NC(=O)[C@H](CC(C)C)NC(=O)[C@H](Cc1ccc(O)cc1)NC(=O)[C@H](CCC(=O)O)NC(=O)[C@@H](NC(=O)[C@H](Cc1ccccc1)NC(=O)[C@H](C)NC(=O)[C@H](CCC(N)=O)NC(=O)[C@H](CCC(N)=O)NC(=O)[C@H](C)NC(=O)[C@H](CCCCNC(=O)COCCOCCNC(=O)COCCOCCNC(=O)CC[C@H](NC(=O)CCCCCCCCCCCCCCCCC(=O)O)C(=O)O)NC(=O)[C@H](CCC(=O)O)NC(=O)[C@H](CC(=O)O)NC(=O)[C@H](CC(C)C)NC(=O)[C@H](CC(C)C)NC(=O)[C@@H](NC(=O)[C@H](CO)NC(=O)[C@H](Cc1ccc(O)cc1)NC(=O)[C@H](CC(=O)O)NC(=O)[C@H](CO)NC(=O)[C@@H](NC(=O)[C@H](Cc1ccccc1)NC(=O)[C@@H](NC(=O)CNC(=O)[C@H](CCC(=O)O)NC(=O)[C@]1(C)CCCN1C(=O)[C@@H](N)Cc1ccc(O)cc1)[C@@H](C)O)[C@@H](C)O)[C@@H](C)CC)[C@@H](C)CC)C(=O)N[C@@H](CCC(=O)O)C(=O)NCC(=O)NCC(=O)N1CCC[C@H]1C(=O)N[C@@H](CO)C(=O)N[C@@H](CO)C(=O)NCC(N)=O
B2: Peptide 202 (peptide)
peptide: YXEGTXTSDXSIXLDKKAQXEFIXYLIEGGPSSGAPPPS
modifications: Aib2; αMeF(2F)6; 4Pal10; αMeL13; K17((2-[2-(2-Amino-ethoxy)-ethoxy]-acetyl)-(γGlu)-(2-[2-(2-Amino-ethoxy)-ethoxy]-acetyl)-CO-(CH2)18-CO2H); Aib20; D-Glu24; C-terminal NH2
B3: Peptide 203 (peptide)
peptide: B2 peptide
modifications: Aib2; αMeF(2F)6; 4Pal10; αMeL13; K17((2-[2-(2-Amino-ethoxy)-ethoxy]-acetyl)2-(γGlu)-CO-(CH2)18-CO2H); Aib20; D-Glu24; C-terminal NH2
B4: Peptide 204 (peptide)
peptide: B2 peptide with K16E
modifications: Aib2; αMeF(2F)6; 4Pal10; αMeL13; K17((2-[2-(2-Amino-ethoxy)-ethoxy]-acetyl)2-(γGlu)-CO-(CH2)16-CO2H); Aib20; D-Glu24; C-terminal NH2
B5: Peptide 205 (peptide)
peptide: B2 peptide with K16E
modifications: Aib2; αMeF(2F)6; 4Pal10; αMeL13; K17((2-[2-(2-Amino-ethoxy)-ethoxy]-acetyl)2-CO-(CH2)16-CO2H); Aib20; D-Glu24; C-terminal NH2
B6: Peptide 206 (peptide)
peptide: B2 peptide with K16E
modifications: Aib2; αMeF(2F)6; 4Pal10; αMeL13; K17((2-[2-(2-Amino-ethoxy)-ethoxy]-acetyl)2-CO-(CH2)18-CO2H); Aib20; D-Glu24; C-terminal NH2
B7: Peptide 207 (peptide)
peptide: B2 peptide with K16E
modifications: Aib2; αMeF(2F)6; 4Pal10; αMeL13; K17((2-[2-(2-Amino-ethoxy)-ethoxy]-acetyl)2-(εK)-CO-(CH2)18-CO2H); Aib20; D-Glu24; C-terminal NH2
B8: Peptide 208 (peptide)
peptide: B2 peptide with X10Y, K16E
modifications: Aib2; αMeF(2F)6; αMeL13; K17((2-[2-(2-Amino-ethoxy)-ethoxy]-acetyl)2-(γGlu)-CO-(CH2)14-CO2H); Aib20; D-Glu24; C-terminal NH2
B9: Peptide 25 (peptide)
peptide: Y[Aib]EGTFTSDYSK([AEEA-AEEA-γGlu-C20 diacid])LLDKIAQ[Aib]AFIEYLIEGGPSSGAPPPS-NH2
modifications: N-terminus assumed
SMILES: CC[C@H](C)[C@H](NC(=O)[C@H](CCCCN)NC(=O)[C@H](CC(=O)O)NC(=O)[C@H](CC(C)C)NC(=O)[C@H](CC(C)C)NC(=O)[C@H](CCCCNC(=O)COCCOCCNC(=O)COCCOCCNC(=O)CC[C@H](NC(=O)CCCCCCCCCCCCCCCCCCC(=O)O)C(=O)O)NC(=O)[C@H](CO)NC(=O)[C@H](Cc1ccc(O)cc1)NC(=O)[C@H](CC(=O)O)NC(=O)[C@H](CO)NC(=O)[C@@H](NC(=O)[C@H](Cc1ccccc1)NC(=O)[C@@H](NC(=O)CNC(=O)[C@H](CCC(=O)O)NC(=O)C(C)(C)NC(=O)[C@@H](N)Cc1ccc(O)cc1)[C@@H](C)O)[C@@H](C)O)C(=O)N[C@@H](C)C(=O)N[C@@H](CCC(N)=O)C(=O)NC(C)(C)C(=O)N[C@@H](C)C(=O)N[C@@H](Cc1ccccc1)C(=O)N[C@H](C(=O)N[C@@H](CCC(=O)O)C(=O)N[C@@H](Cc1ccc(O)cc1)C(=O)N[C@@H](CC(C)C)C(=O)N[C@H](C(=O)N[C@@H](CCC(=O)O)C(=O)NCC(=O)NCC(=O)N1CCC[C@H]1C(=O)N[C@@H](CO)C(=O)N[C@@H](CO)C(=O)NCC(=O)N[C@@H](C)C(=O)N1CCC[C@H]1C(=O)N1CCC[C@H]1C(=O)N1CCC[C@H]1C(=O)N[C@@H](CO)C(N)=O)[C@@H](C)CC)[C@@H](C)CC
B10: Peptide 210 (peptide)
peptide: B2 peptide with X10Y, K16X
modifications: Aib2; αMeF(2F)6; αMeL13; Dap16; K17((2-[2-(2-Amino-ethoxy)-ethoxy]-acetyl)2-(γGlu)-CO-(CH2)16-CO2H); Aib20; D-Glu24; C-terminal NH2
B11: Peptide 211 (peptide)
peptide: B2 peptide with X10Y
modifications: Aib2; αMeF(2F)6; αMeL13; K17((2-[2-(2-Amino-ethoxy)-ethoxy]-acetyl)-(γGlu)-(2-[2-(2-Amino-ethoxy)-ethoxy]-acetyl)-CO-(CH2)18-CO2H); Aib20; D-Glu24; C-terminal NH2
B12: Peptide 212 (peptide)
peptide: B2 peptide with X10Y
modifications: Aib2; αMeF(2F)6; αMeL13; K17((2-[2-(2-Amino-ethoxy)-ethoxy]-acetyl)2-(γGlu)-CO-(CH2)18-CO2H); Aib20; D-Glu24; C-terminal NH2
B13: Peptide 213 (peptide)
peptide: B2 peptide with X10Y, K16E
modifications: Aib2; αMeF6; αMeL13; K17((2-[2-(2-Amino-ethoxy)-ethoxy]-acetyl)2-(γGlu)-CO-(CH2)16-CO2H); Aib20; D-Glu24; C-terminal NH2
B14: Peptide 214 (peptide)
peptide: B2 peptide with X10Y, K16E
modifications: Aib2; αMeF(2F)6; αMeL13; K17((2-[2-(2-Amino-ethoxy)-ethoxy]-acetyl)2-CO-(CH2)16-CO2H); Aib20; D-Glu24; C-terminal NH2
B15: Peptide 215 (peptide)
peptide: B2 peptide with X10Y, K16E
modifications: Aib2; αMeF(2F)6; αMeL13; K17((2-[2-(2-Amino-ethoxy)-ethoxy]-acetyl)2-CO-(CH2)18-CO2H); Aib20; D-Glu24; C-terminal NH2

Biological target: human GLP-1 receptor (human, UniProt P43220 24-463)
Assay: cell-based or functional assay

In order of rising “hGLPIR cAMP EC50 ratio” value:
1. B1  0.189
2. B9  0.197
3. B8  0.587
4. B3  0.671
5. B4  0.689
6. B13  0.694
7. B2  0.712
8. B12  0.771
9. B15  0.813
10. B10  1.03
11. B7  1.23
12. B11  1.28
13. B6  1.42
14. B5  1.46
15. B14  1.74
